Results published in patent US20180208678A1 (UNIVERSITY OF CHICAGO, published 2018).
Each block holds one binder with its values, some of them ahead of it.

Assays:
[1] = biological target: BgaD-D, smallest isozyme of the β-galactosidase from B. circulans ATCC 31382 (Biolacta) (Bacillus circulans ATCC 31382); assay: Kd table; method not given
[2] = biological target: BgaD-D, smallest isozyme of the β-galactosidase from B. circulans ATCC 31382 (Biolacta) (Bacillus circulans ATCC 31382); assay: bead assay, purified proteins, target given as BgaD-D/WT, titrated 0-1000 nM shown, 1:1 fit [panel a]
[3] = biological target: BgaD-D, smallest isozyme of the β-galactosidase from B. circulans ATCC 31382 (Biolacta) (Bacillus circulans ATCC 31382); assay: Kd table; yeast-surface display (paragraph 202 repeats it as 12±3 nM)
[4] = biological target: BgaD-D active site mutant E447Q (Bacillus circulans ATCC 31382); assay: bead assay, purified proteins, target given as BgaD-D/EQ, titrated 0-1000 nM shown, 1:1 fit [panel a]
[5] = biological target: BgaD-D, smallest isozyme of the β-galactosidase from B. circulans ATCC 31382 (Biolacta) (Bacillus circulans ATCC 31382); assay: bead assay, purified proteins: biotinylated monobody on streptavidin-coated beads, BgaD-D titrated (0-1000 nM shown), flow cytometry, 1:1 fit [panel b]
[6] = biological target: BgaD-D, smallest isozyme of the β-galactosidase from B. circulans ATCC 31382 (Biolacta) (Bacillus circulans ATCC 31382); assay: KD (nM) to BgaD-D; assay not given; the values equal those of the bead assay with purified proteins in FIG. 3B [panel c]
[7] = biological target: BgaD-D active site mutant E447K (Bacillus circulans ATCC 31382); assay: bead assay, purified proteins, target given as BgaD-D/EK, titrated 0-1000 nM shown, 1:1 fit [panel a]
[8] = biological target: BgaD-D active site mutant E447R (Bacillus circulans ATCC 31382); assay: bead assay, purified proteins, target given as BgaD-D/ER, titrated 0-1000 nM shown, 1:1 fit [panel a]
[9] = biological target: BgaD-D, smallest isozyme of the β-galactosidase from B. circulans ATCC 31382 (Biolacta) (Bacillus circulans ATCC 31382); assay: cell-based or functional assay
[10] = biological target: BgaD-D, smallest isozyme of the β-galactosidase from B. circulans ATCC 31382 (Biolacta) (Bacillus circulans ATCC 31382); assay: Kd table; yeast-surface display (paragraph 202 repeats it as 600±170 nM)
[11] = biological target: BgaD-D, smallest isozyme of the β-galactosidase from B. circulans ATCC 31382 (Biolacta) (Bacillus circulans ATCC 31382); assay: bead assay with purified proteins, biotinylated monobody on streptavidin beads (FIG. 3B)
[12] = biological target: T1, Candida rugosa lipase 1 (CRL1) (Candida rugosa, UniProt P20261 16-549, biotinylated with NHS-LC-biotin, about 2 biotin per CRL1 molecule (binding assays)); assay: yeast-surface display of the monobody, CRL1 titrated, flow cytometry, 1:1 fit [panel a]
T1 construct: Bought purified protein
Protocol: Affinity of monobodies to CRL1 was determined using yeast-surface display, as described previously. Yeast cells displaying a monobody were incubated with varying concentrations of CRL1, washed with the buffer and stained with appropriate fluorescently labeled secondary detection reagents, prior to analysis on a flow cytometer (Guava EasyCyte 6/L, Millipore). KD values were determined from plots of the mean fluorescent intensity against CRL1 concentration by fitting the 1:1 binding model using SigmaPlot software (Systat Software).

[13] = biological target: T1, Candida rugosa lipase 1 (CRL1); assay: cell-based or functional assay

Kd [1]: 50 nM
B1: Mb(BgaD_S13) (designed binder)
chain: VSSVPTKLEVVAATPTSLLISWDAPAVTVVFYVITYGETGVHWPGYQKFTVPGSKSTATISGLKPGVDYTITVYAQFPWYMGSPISINYRT

Kd [2]: 25 nM | Kd [3]: 12 nM | Kd [4]: 46 nM | Kd [5]: 25 nM | Kd [6]: 25 nM | Kd [7]: 156 nM | Kd [8]: 227 nM | production of DP4 by BgaD-D (fold reduction) [9]: 4.5 fold | production of DP5+ by BgaD-D (fold reduction) [9]: 30 fold
B2: Mb(BgaD_L23) (designed binder)
chain: VSSVPTKLEVVAATPTSLLISWDAFDGYWYDYVSFYRITYGESGGNSPVQEFTVPSSSSTATISGLKPGVDYTITVYAYSHSQQQYLSPNSINYRT

Kd [1]: 33 nM
B3: Mb(BgaD_L22) (designed binder)
chain: VSSVPTKLEVVAATPTSLLISWDAFDGYWYDYVSYYRITYGETGGNSPVQVFTVPSSSSTATISGLKPGVDYTITVYAYSHSQLQYLSPISINYRT

Kd [2]: 37 nM | Kd [4]: 72 nM | Kd [5]: 37 nM | Kd [7]: 173 nM | Kd [10]: 598 nM | Kd [8]: 224 nM
B4: Mb(BgaD_L19) (designed binder)
chain: VSSVPTKLEVVAATPTSLLISWDAFDGYWYDYVSYYRITYGETGGNSPVQEFTVPSSSSTATISGLKPGVDYTITVYAYSHSQQQYLSPISINYRT

Kd [1]: 11 nM
B5: Mb(BgaD_L24) (designed binder)
chain: VSSVPTKLEVVAAAPTTLLISWDAFDGYWYDYVSYYRITYGETGGNSPVQEFTVPSSSSTAIISGLKPGVDYTITVYAYHHSQQQYLSPISINYRT

Kd [2]: 13 nM | Kd [4]: 16 nM | Kd [5]: 13 nM | Kd [6]: 13 nM | Kd [7]: 12 nM | Kd [8]: 16 nM | Kd [1]: 15 nM
B6: Mb(BgaD_S10) (designed binder)
chain: VSSVPTKLEVVAATPTSLLISWDAPAVTVVFYLITYGETGASSWPGYQEFTVPGSKSTATISGLKPGVDYTITVYAQYPWDTGSPISINYRT

Kd [1]: 18 nM
B7: Mb(BgaD_S12) (designed binder)
chain: VSSVPTKLEVVAATPTSLLISWDAPAVTVVFYIITYGETGAAVWPGHQEFTVPGSKSTATISGLKPGVDYTITVYAVGPWDYYSPISINYRT

Kd [1]: 24 nM
B8: Mb(BgaD_S06) (designed binder)
chain: VSSVPTKLEVVAATPTSLLISWDAPAVTVVFYVITYGETGAAVWPGHQEFTVPGSKSTATISGLKPGVDYTITVYAQGGRWKSSPISINYRT

Kd [1]: 488 nM
B9: Mb(BgaD_S07) (designed binder)
chain: VSSVPTKLEVVAATPTSLLISWDAPAVTVDLYLITYGETGFSYGFPQAFTVPGSKSTATISGLKPGVDYTITVYASTVDGHSSPISINYRT

Kd [1]: 76 nM
B10: Mb(BgaD_L03) (designed binder)
chain: VSSVPTKLEVVAATPTSLLISWDAGDYWVYYYRITYGETGGNSPVQEFTVPGYSSTATISGLKPGVDYTITVYAGDLSFNTYYYSPISINYRT

Kd [1]: 246 nM
B11: Mb(BgaD_S11) (designed binder)
chain: VSSVPTKLEVVAATPTSLLISWDAPAVTVVLYVITYGETGPGHSAWPQAFTVPGSKSTATISGLKPGVDYTITVYAYWDWDSHRYSPISINYRT

Kd [1]: 137 nM
B12: Mb(BgaD_L04) (designed binder)
chain: VSSVPTKLEVVAATPTSLLISWDAYEHWSGVYYYRITYGETGGNSPVQEFTVPGSSSTATISGLKPGVDYTITVYAYSYSYASMYSPISINYRT

Kd [1]: 163 nM
B13: Mb(BgaD_L01) (designed binder)
chain: VSSVPTKLEVVAATPTSLLISWDAMDHTPYVYYYRITYGETGGNSPVQEFTVPGYYSTATISGLKPGVDYTITVYAGDLSWNFDFYSPISINYRT

Kd [2]: 171 nM | Kd [4]: 239 nM | Kd [5]: 171 nM | Kd [6]: 171 nM | Kd [7]: 178 nM | Kd [8]: 157 nM | Kd [1]: 184 nM
B14: Mb(BgaD_S09) (designed binder)
chain: VSSVPTKLEVVAATPTSLLISWDAPAVTVVYYVITYGETGGNSPVQEFTVPGSKSTATISGLKPGVDYTITVYAYSDQVEYYEYFYGSPISINYRT

Kd [1]: 515 nM
B15: Mb(BgaD_L05) (designed binder)
chain: VSSVPTKLEVVAATPTSLLISWDAYKSLGGVDYYRITYGETGGNSPVQEFTVPGSSSTATISGLKPGVDYTITVYAGYLWYPYGEWSPISINYRT

Kd [11]: 31 nM | Kd [1]: 37 nM
B16: Mb(BgaD_L14) (designed binder)
chain: VSSVPTKLEVVAATPTSLLISWDASSYYGVVSYYRITYGETGGNSPVQEFTVPGYSSTATISGLKPGVDYTITVYASYYYWYTSYTKSPISINYRT

Kd [1]: 476 nM
B17: 1Mb39 S (designed binder)
chain: VSSVPTKLEVVAATPTSLLISWDAPAVTVDFYLITYGETGGPSWPQAFAVPGSKSTATISGLKPGVDYTITVYASSSSRISSSSSKPISINYRT

Kd [2]: 9.9 nM | Kd [4]: 12 nM | Kd [5]: 9.9 nM | Kd [6]: 9.9 nM | Kd [7]: 11 nM | Kd [8]: 11 nM | Kd [1]: 5.7 nM
B18: Mb(BgaD_L02) (designed binder)
chain: VSSVPTKLEVVAATPTSLLISWDANGWNYVKYYRITYGETGGNSPVQEFTVPGSSSTATISGLKPGVDYTITVYAYEYYSESSSSPISINYRT

Kd [1]: 147 nM
B19: Mb(BgaD_L18) (designed binder)
chain: VSSVPTKLEVVAATPTSLLISWDAESWYWPYYVSYYRITYGETGGNSPVQEFTVPSSSSTATISGLKPGVDYTITVYAFEHHEQRYYSPISINYRT

Kd [1]: 214 nM
B20: Mb(BgaD_S08) (designed binder)
chain: VSSVPTKLEVVAATPTSLLISWDAPAVTVDLYVITYGETGGSSWPQAFTVPGSKSTATISGLKPGVDYTITVYAHSWDHSYSPISINYRT

Kd [12]: 54 nM | CRL1 activity toward C8 triacylglyceride (fold reduction relative to CRL1 alone) [13]: 11 fold | CRL1 activity toward C10 triacylglyceride (fold reduction relative to CRL1 alone) [13]: 102 fold | CRL1 activity toward C12 triacylglyceride (fold reduction relative to CRL1 alone) [13]: 4.5 fold
B21: Mb(CRL_L18) (designed binder)
chain: VSSVPTKLEVVAATPTSLLISWDAMQYSEYDVTYYRITYGETGGNSPVQEFTVPGSSSTATISGLKPGVDYTITVYAVWQYMHYMHSYSPISINYRT
notes: 109 is Mb(S19)); also called Mb(L18)

Kd [12]: 9.3 nM
B22: Mb(CRL_L24) (designed binder)
chain: VSSVPTKLEVVAATPTSLLISWDASSSSVSYYRITYGETGGNSPVQEFTVPGSSSTATISGLKPGVDYTITVYAFGHYYGSWVWSPISINYRT
notes: also called Mb(L24)

Kd [12]: 11 nM
B23: Mb(CRL_L23) (designed binder)
chain: VSSVPTKLEVVAATPTSLLISWDASSSSVSYYRITYGETGGNSPVQEFTVPGSSSTATISGLKPGVDYTITVYAFGHYYGSWAWSPISINYRT
notes: Mb(L23) and Mb(L24) differ by one residue and could be 116/117 in either order; also called Mb(L23)
